# Measured values published in US20100209400A1, “TAK1-Mediated Regulation of Osteogenesis” (priority 2003, published 2010).
# Assays:
# C3H10T½-BMP2 cells [1] = assay: FACS for apoptosis and cell cycle progression; format: cell-based, murine; conditions: CDDP 25 μM, TAK1 variants stably co-expressed; for apoptosis (subG0-G1 peak): etoposide 10 μM
# Method: Exponentially growing cells were harvested 48 hours post-seeding or at different stages at and after confluence by trypsinization and fixation with 80% methanol. Cellular DNA content was determined by staining cells with RNAseS/propidium iodide, and measuring fluorescence in a Becton Dickinson FACScan. For each cell population, 10,000 cells were analyzed, and the proportions in G0/G1, G2/M and S-phases were estimated by using Modfit cell cycle analysis software. Information on cell size (e.g. due to differentiation) and complexity could be obtained from forward and side scatter data following evaluation of relevant cell populations.
# To determine whether TAK1-mediated effects in the assay systems above resulted from apoptosis, C3H10T½-BMP2 cells co-expressing TAK1 variants were assayed by FACS for apoptosis and cell cycle progression.
# [2] = system: p38 MAPK and JNK phosphorylation; assay: p38 MAPK and JNK phosphorylation in transfected cells; format: cell-based; conditions: data not shown
# Excerpt: Among nine tissues examined, both TAK1 long and short forms were expressed in every tissue assessed apart from kidney (FIG. 1B). TAK1 tissue-specific expression levels varied, with minimal lung expression detected. Both TAK1 splice variants were comparably expressed in the mesenchymal progenitor line, C3H10T½ (see FIG. 8A). TAK1 mutants generated from the long transcript form included dominant-negative (TAK1dn) and constitutively active (TAK1ca) variants as compared to wild-type control (TAK1wt).
# SMAD1:SMAD4 interaction = target: T1, SMAD1:SMAD4 interaction (Homo sapiens, UniProt Q13485+Q15797); assay: Co-immunoprecipitation of SMAD1:SMAD4 hetero-oligomerization in HEK293T cells; format: cell-based; conditions: receptor-mediated hetero-oligomerization
# T1 construct: expressed in transfected cells; host or cells: HEK293T
# T1 sequence (Q15797 whole entry): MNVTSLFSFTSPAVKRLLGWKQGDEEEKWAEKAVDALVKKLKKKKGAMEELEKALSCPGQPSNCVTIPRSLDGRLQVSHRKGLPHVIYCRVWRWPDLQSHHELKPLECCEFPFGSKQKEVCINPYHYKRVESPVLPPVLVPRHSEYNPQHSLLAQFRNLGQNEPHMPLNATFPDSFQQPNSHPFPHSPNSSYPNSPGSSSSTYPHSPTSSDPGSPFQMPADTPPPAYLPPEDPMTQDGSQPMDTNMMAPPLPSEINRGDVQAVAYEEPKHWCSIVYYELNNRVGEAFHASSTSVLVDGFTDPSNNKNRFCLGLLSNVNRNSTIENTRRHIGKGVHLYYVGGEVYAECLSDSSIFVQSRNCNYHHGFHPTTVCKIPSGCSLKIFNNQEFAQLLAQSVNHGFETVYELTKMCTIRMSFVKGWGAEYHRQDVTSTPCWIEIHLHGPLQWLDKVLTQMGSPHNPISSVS
# T1 sequence (Q13485 whole entry): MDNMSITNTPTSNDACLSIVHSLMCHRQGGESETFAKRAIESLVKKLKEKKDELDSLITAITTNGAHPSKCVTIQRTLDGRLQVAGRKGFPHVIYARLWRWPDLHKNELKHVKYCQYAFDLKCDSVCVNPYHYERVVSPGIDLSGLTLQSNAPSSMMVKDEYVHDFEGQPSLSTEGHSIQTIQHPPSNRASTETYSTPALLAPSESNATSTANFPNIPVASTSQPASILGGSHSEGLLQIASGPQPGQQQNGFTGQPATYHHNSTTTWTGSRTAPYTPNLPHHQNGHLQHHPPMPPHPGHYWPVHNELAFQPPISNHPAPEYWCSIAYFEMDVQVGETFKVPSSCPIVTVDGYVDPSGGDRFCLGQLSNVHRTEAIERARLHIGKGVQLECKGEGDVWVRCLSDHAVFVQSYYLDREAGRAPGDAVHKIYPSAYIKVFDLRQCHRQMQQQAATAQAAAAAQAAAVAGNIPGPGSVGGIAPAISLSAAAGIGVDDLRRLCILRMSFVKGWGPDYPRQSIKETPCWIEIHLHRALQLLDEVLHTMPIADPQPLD
# Method: (§1) Co-immunoprecipitation were conducted as described (Verschueren K et al, J. Biol. Chem, 274: 20489-20498, 1999). Human embryonic kidney (HEK) 293T cells were plated at 3×10^6 cells/petri dish (55 square centimeters (cm^2)) one day prior to transfection. For transient transfections, 1 μg of Flag-tagged expression plasmid and 2 μg of Myc- or HA-tagged expression plasmids were utilized. DNA content was normalized with empty vector. Transfections were performed with FuGENE6 (Roche, Mannheim). Roughly 36 hours post-transfection cells were dislodged from dishes and harvested by centrifugation. Pellets were shock frozen in liquid nitrogen. […] reactions were performed in lysis buffer. Cell extracts and immunoprecipitates were analyzed by SDS-PAGE and Western blot analysis using the appropriate antibodies.
# R-SMAD hetero-oligomerization with SMAD4 and subsequent accumulation in the nucleus is essential for biological activity.
# [3] = system: SMAD1-mediated transcription; assay: SMAD1-SBE CAT reporter assay; format: cell-based, human; conditions: dose-dependent, following activation by constitutively active receptors
# Method: Reporter assays using the GALA DNA binding domain fused to various forms of SMAD proteins were performed as described (Meersseman, G at al, Mech. Dev, 61: 127-140, 1997). Briefly, 420 nanograms (ng) DNA was transfected/well (24 well-plate seeded with 1×10^5 HEK 293T cells) one day prior to transfection. The DNA mix included a plasmid expressing β-galactosidase under the control of the RSV promoter, for normalization purposes and a reporter plasmid encoding firefly luciferase under the control of 5 GAL4 binding sites upstream of a minimal TATA box (pG5 luc, Promega, Mannheim) and combinations of effector plasmids. The DNA content was normalized with empty vector.
# Cells were harvested and lysed. β-Galactosidase (β-gal) activity was measured via the luminescent β-galactosidase kit II (Clontech, Palo Alto, Calif.), and luciferase activity via the luciferase assay system (Promega, Mannheim). All results are expressed as luciferase activity normalized with β-gal values (“relative luciferase activities”). Reporter assays with the SMAD1 DNA binding element SBE-9 (GCCG×9) (Kusanagi K et al, Mol Biol Cell 11: 555-565, 2000) cloned into pCAT5 vector (Boshart M et al, Gene 110: 129-130, 1992) were performed similarly except that cells were lysed in CAT lysis buffer. CAT enzyme was measured via CAT ELISA assay and β-gal via chemiluminescent β-gal reporter gene assay (Roche, Mannheim). […]
# SMAD proteins = assay: Co-immunoprecipitation of TAK1 variants with SMADs from HEK293T cells; format: binding; conditions: SMAD7, R-SMADs 1-3, 5, SMAD4
# Method: as §1
# Toward this end, co-immunoprecipitation with various combinations of wild-type TAK1 (TAK1wt) and R-SMADs, either in a latent form or post-activation by constitutively active BMP type I receptor (ALK6ca, BMPR-IB) or activin type I receptor ALK4ca (ActR-IB), I-SMADs and SMAD4, were conducted. […] TAK1 interaction with R-SMADs was typically stronger in the absence of constitutively active receptors (the exception being SMAD3), which may reflect a reduced affinity for activated, i.e. phosphorylated R-SMADs by TAK1, except with SMAD3.
# SMAD proteins only bind TAK1 with an intact or a constitutively active kinase domain. Different TAK1 variants such as TAK1wt, TAK1ca, TAK1dn and two deletions, TAKDN (lacking amino acids 1-300; FIG. 1a) and TAKDC (lacking 301-606; FIG. 1a), respectively, were tested for their ability to bind to R-SMADs (using SMAD1 as a representative) or I-SMAD6 and I-SMAD7.
# C3H10T½-BMP2 cells [4] = assay: Semi-quantitative RT-PCR of osteo-/chondrogenic marker genes and Alcian Blue staining; format: cell-based, murine; conditions: co-expression in C3H10T½-BMP2 cells
# Method: (§2) Proteoglycan-secreting chondrocytes were identified by staining with Alcian Blue at pH 2.5 (Alcian Blue 8GS, Roth, Karlsruhe).
# Total cellular RNA was prepared by TriReagent LS according to the manufacturer's protocol (Molecular Research Center Inc., Ohio, Miss.). Five μg of total RNA was reverse transcribed with oligo-dT primers and cDNA aliquots were subjected to PCR. RT-PCR was normalized by the transcriptional levels of HPRT. The primer pairs and PCR conditions used to evaluate osteo-/chondrogenic differentiation, for collagen Ia1, collagen IIa1, osteocalcin, and the PTH/PTHrP-receptor have been described (Hoffmann A et al, J. Cell Sci 115: 769-781, 2002).
# C3H10T½-BMP2 cells [5] = assay: Histological analysis and alkaline phosphatase staining of C3H10T½-BMP2 cells; format: cell-based, murine
# Method: Murine C3H10T½ progenitor cells were cultured in high-glucose DMEM containing 10% fetal calf serum, as described (Ahrens Met al, DNA Cell Biol, 12: 871-880, 1993). Cells were stably transfected with expression plasmids encoding wt TAK1, dominant-negative (dn) or constitutively active (ca) TAK1 in pMT7T3-f1 using DOSPER™ according to the manufacturer's protocol (Roche, Mannheim) and a selection plasmid conferring puromycin resistance (pBSpacDp: parental C3H10T½ cells) or G418-resistance (pAG60: BMP2-expressing C3H10T½ cells). Individual clones were picked, propagated, and tested for recombinant expression of TAK1-variants by RT-PCR using a vector-specific and a gene-specific primer. Control cell lines (empty to expression vector) were established at the same time. Cells were plated at a density of 5,000 cells/cm^2. After reaching confluence (arbitrarily termed day 0) ascorbic acid (50 microgram/milliliter (μg/ml)) and b-glycerophosphate (10 millimolar (mM)) were added.
# as §2
# Osteoblast formation was evaluated as a measure of TAK1 influence on osteo-/chondrogenic differentiation potential. C3H10T½-BMP2 cells co-expressing TAK1 and its molecular variants were assessed histologically for alkaline phosphatase (ALP) activity (FIG. 8C), which is indicative of osteoblast differentiation.
molecule,measurement,setting,value
COc1cc([C@@H]2c3cc4c(cc3[C@@H](O[C@@H]3O[C@@H]5CO[C@@H](C)O[C@H]5[C@H](O)[C@H]3O)[C@H]3COC(=O)[C@H]23)OCO4)cc(OC)c1O [etoposide],apoptosis (subG0-G1 peak),C3H10T½-BMP2 cells [1],induced a significant subG0-G1 peak
"[NH2][Pt]([NH2])([Cl])[Cl] [CDDP, cisplatin]",cell cycle effect,C3H10T½-BMP2 cells [1],arrested maturation in the G2-M phase
same,apoptosis (subG0-G1 peak),C3H10T½-BMP2 cells [1],did not cause measurable apoptosis
"TAK1wt: wild-type murine TAK1 (long splice form) cloned from kidney, expressed from plasmid in transfected cells (protein, left off: small tags and cut ends, wild-type murine TAK1 (long splice form) cloned from kidney, expressed from plasmid in transfected cells) MSTASAASSSSSSSASEMIEAPSQVLNFEEIDYKEIEVEEVVGRGAFGVVCKAKWRAKDVAIKQIESESERKAFIVELRQLSRVNHPNIVKLYGACLNPVCLVMEYAEGGSLYNVLHGAEPLPYYTAAHAMSWCLQCSQGVAYLHSMQPKALIHRDLKPPNLLLVAGGTVLKICDFGTACDIQTHMTNNKGSAAWMAPEVFEGSNYSEKCDVFSWGIILWEVITRRKPFDEIGGPAFRIMWAVHNGTRPPLIKNLPKPIESLMTRCWSKDPSQRPSMEEIVKIMTHLMRYFPGADEPLQYPCQYSDEGQSNSATSTGSFMDIASTNTSNKSDTNMEQVPATNDTIKRLESKLLKNQAKQQSESGRLSLGASRGSSVESLPPTSEGKRMSADMSEIEARIVATAAYSKPKRGHRKTASFGNILDVPEIVISGNGQPRRRSIQDLTVTGTEPGQVSSRSSSPSVRMITTSGPTSEKPARSHPWTPDDSTDTNGSDNSIPMAYLTLDHQLQPLAPCPNSKESMAVFEQHCKMAQEYMKVQTEIALLLQRKQELVAELDQDEKDQQNTSRLVQEHKKLLDENKSLSTYYQQCKKQLEVIRSQQQKRQGTS",biological activity as evidenced by p38 MAPK and JNK phosphorylation,[2],biologically active
same,apoptosis (subG0-G1 peak),C3H10T½-BMP2 cells [1],did not induce apoptosis
same,SMAD1:SMAD4 interaction,SMAD1:SMAD4 interaction,enhanced
same,maximum reduction of SMAD1 transcription (CAT reporter),[3],30%
same,binding of TAK1 variant to SMAD proteins (co-immunoprecipitation),SMAD proteins,able to interact
same,"expression of osteogenic marker genes (osteocalcin, PTH/PTHrP receptor)",C3H10T½-BMP2 cells [4],down-regulated expression of osteogenic genes
same,growth phenotype of C3H10T½-BMP2 cells expressing the TAK1 variant,C3H10T½-BMP2 cells [5]; after confluence,C3H10T½ wild-type phenotype
same,osteoblast-like cell formation / ALP activity,"C3H10T½-BMP2 cells [5]; compared to C3H10T½-BMP2 cells, 10 days post-confluence",interfered with osteoblast-like cell formation
"TAKDN: TAK1 Δ1-300 N-terminal deletion mutant (protein, left off: small tags and cut ends, TAK1 Δ1-300 N-terminal deletion mutant) PCQYSDEGQSNSATSTGSFMDIASTNTSNKSDTNMEQVPATNDTIKRLESKLLKNQAKQQSESGRLSLGASRGSSVESLPPTSEGKRMSADMSEIEARIVATAAYSKPKRGHRKTASFGNILDVPEIVISGNGQPRRRSIQDLTVTGTEPGQVSSRSSSPSVRMITTSGPTSEKPARSHPWTPDDSTDTNGSDNSIPMAYLTLDHQLQPLAPCPNSKESMAVFEQHCKMAQEYMKVQTEIALLLQRKQELVAELDQDEKDQQNTSRLVQEHKKLLDENKSLSTYYQQCKKQLEVIRSQQQKRQGTS",binding of TAK1 variant to SMAD proteins (co-immunoprecipitation),SMAD proteins,unable to bind significantly
